Laboratory results as given in patent US20200165354A1 (WUXI BIOLOGICS IRELAND, published 2020).

Experiments:
[1] = target: human PCSK9 with C-terminal 6-His tag, biotin-labelled (PCSK9-His-biotin) (human) (UniProt Q8NBP7); assay: ELISA binding to human PCSK9
[2] = target: human PCSK9 (construct not stated) (human) (UniProt Q8NBP7); assay: cell-based or functional assay
[3] = target: human PCSK9 with C-terminal murine Fc, biotin-labelled (PCSK9-mFc-biotin) (human) (UniProt Q8NBP7); assay: blocking ELISA, binding of PCSK9 to LDL-R
[4] = target: T1, rhesus (monkey) PCSK9, SPR analyte, construct not stated (rhesus monkey, UniProt A8T666 31-692, limits assumed); assay: SPR Biacore, antibody captured, monkey PCSK9 as analyte
T1 construct: also called rhesus PCSK9
Procedure: (§1) Antibody binding affinity to human and rhesus PCSK9 was detected by SPR assay using Biacore T200 (GE). Each antibody was captured on anti-murine IgG Fc antibody (GE) or anti-human IgG Fc antibody (Genway) immobilized CM5 sensor chip (GE). Human or rhesus PCSK9 at different concentrations were injected over the sensor chip at a flow rate of […] for an association phase of 180 s, followed by 1200 s dissociation. The chip was regenerated by 2 M MgCl₂ after each binding cycle.
(§2) The sensorgrams for blank surface and buffer channel are subtracted from the test sensorgrams. The experimental data was fitted by 1:1 model using Langmiur analysis. Molecular weight of 85 KDa was used to calculate the molar concentration of analyte.

[5] = target: T2, human PCSK9 (construct not stated) (human, UniProt Q8NBP7 31-692, limits assumed); assay: SPR Biacore, antibody captured, human PCSK9 as analyte
T2 construct: Analyte in SPR (molecular weight of 85 KDa used for the molar concentration), added at 20 ug/ml in LDL-uptake assays; biotin-labelled in the serum stability ELISA; also called wild type PCSK9; Biotin-labeled PCSK9
Procedure: as §1, §2

[6] = target: T2, human PCSK9 (construct not stated); assay: SPR Biacore T200, antibody captured by anti-Fc antibody, PCSK9 as analyte, 1:1 fit
Procedure: as §1, §2
Kinetic affinity by SPR: the affinities of selected clones binding to human PCSK9 were measured by SPR assay.

[7] = target: T3, human PCSK9 with C-terminal murine Fc, biotin-labelled (PCSK9-mFc-biotin) (human, UniProt Q8NBP7 31-692, limits assumed, biotin-labelled, site not stated); assay: competition ELISA, antibody premixed with PCSK9-mFc-biotin, binding to coated LDL-R
T3 construct: not shown: murine Fc (mFc) fused at the C-terminus
Procedure: Blocking assay by ELISA: Plates (Nunc) were coated with LDL-R overnight at 4° C. Hybridoma supernatants were mixed with 250 ng/ml PCSK9-mFc-biotin and incubated at 4° C. overnight. After blocking and washing, the mixture were added to the plates and incubated for 1 h. The plates were then washed and subsequently incubated with streptavidin-HRP. After washing, TMB substrate was added and the interaction was stopped by 2M HCl. The absorbance at 450 nm was read using a microplate reader (Molecular Device).
(§3) Binding and blocking activities were confirmed using purified antibodies (FIGS. 1 and 2).

[8] = target: T4, human PCSK9 with C-terminal 6-His tag, biotin-labelled (PCSK9-His-biotin) (human, UniProt Q8NBP7 31-692, biotin-labelled, site not stated); assay: ELISA, purified antibody on PCSK9-His-biotin captured on streptavidin
T4 construct: Made in HEK293, purified on Ni column
Procedure: Binding assay by ELISA: Plates (Nunc) were coated with Streptavidin at 1 μg/ml overnight at 4° C. After blocking and washing, 250 ng/ml PCSK9-His-biotin was added and incubated for 1 h. Then hybridoma supernatants were transferred to the plates and incubate at room temperature for 1 h. The plates were then washed and subsequently incubated with secondary antibody goat anti mouse-IgG-Fc-HRP (Bethyl) for 1 h. After washing, TMB substrate was added and the interaction was stopped by 2M HCl. The absorbance at 450 nm was read using a microplate reader (Molecular Device).
as §3

[9] = target: T2, human PCSK9 (construct not stated); assay: cell-based or functional assay
[10] = target: T5, rhesus PCSK9-His (Sino Biological) (rhesus monkey, UniProt A8T666 31-692, limits assumed); assay: ELISA, rhesus PCSK9-His captured on anti-His antibody
T5 construct: also called rhesus monkey PCSK9; monkey PCSK9
Procedure: ELISA plates (Nunc) were coated with anti-His antibody (Genscript) at 1 μg/ml overnight at 4° C. After blocking and washing, 1 μg/ml rhesus PCSK9-His (Sino Biological) was added and incubated for 1 h. The antibody samples were added to the plates and incubate at room temperature for 1 h. The plates were then washed and subsequently incubated with secondary antibody goat anti mouse-IgG-Fc-HRP (Bethyl) for 45 min. After washing, TMB substrate was added and the interaction was stopped by 2M HCl. The absorbance at 450 nm was read using a microplate reader (Molecular Device).
Binding to monkey PCSK9: the affinity of selected antibodies binding to rhesus monkey PCSK9 was measured by ELISA (see FIG. 4).

[11] = target: T4, human PCSK9 with C-terminal 6-His tag, …; assay: ELISA binding to human PCSK9
[12] = target: T3, human PCSK9 with C-terminal murine Fc, …; assay: blocking ELISA, binding of PCSK9 to LDL-R
[13] = target: T2, human PCSK9 (construct not stated); assay: ELISA, biotin-labelled PCSK9 on a streptavidin plate, antibody in human serum, 0 days at 37 C, goat anti-human-HRP, OD450
Procedure: (§4) After incubation at 37° C., samples were rapidly frozen in dry-ice-ethanol bath and kept at −80° C. The samples were rapidly thawed before stability test. The plates were coated with streptavidin in Na₂CO₃/NaHCO₃ (pH 9.2) buffer at 4° C. overnight. The plates were washed with 0.1% Tween-PBS once before being blocked with 2% BSA/PBS. Biotin-labeled PCSK9 was added and incubated for 1 hr. After washing, then diluted serum samples were transferred to the plates and incubated for 1 hr at room temperature. Goat anti-human-HRP antibody were added to the wells and incubated for 1 hr. After washing, TMB substrate was added and the interaction was stopped by 2 M HCl. The absorbance at 450 nm was read using a microplate reader (Molecular Device).
(§5) The antibody binding to human PCSK9 was tested by ELISA after incubation in human serum at 37° C.

[14] = target: T2, human PCSK9 (construct not stated); assay: ELISA, biotin-labelled PCSK9 on a streptavidin plate, antibody in human serum, 3 days at 37 C, goat anti-human-HRP, OD450
Procedure: as §4, §5

[15] = target: T1, rhesus (monkey) PCSK9, SPR analyte, …; assay: SPR, monkey PCSK9
Procedure: as §1, §2
The binding activity of engineered antibody was evaluated by SPR affinity test.

[16] = target: T2, human PCSK9 (construct not stated); assay: SPR, human PCSK9

T1 sequence (A8T666 31-692 limits assumed): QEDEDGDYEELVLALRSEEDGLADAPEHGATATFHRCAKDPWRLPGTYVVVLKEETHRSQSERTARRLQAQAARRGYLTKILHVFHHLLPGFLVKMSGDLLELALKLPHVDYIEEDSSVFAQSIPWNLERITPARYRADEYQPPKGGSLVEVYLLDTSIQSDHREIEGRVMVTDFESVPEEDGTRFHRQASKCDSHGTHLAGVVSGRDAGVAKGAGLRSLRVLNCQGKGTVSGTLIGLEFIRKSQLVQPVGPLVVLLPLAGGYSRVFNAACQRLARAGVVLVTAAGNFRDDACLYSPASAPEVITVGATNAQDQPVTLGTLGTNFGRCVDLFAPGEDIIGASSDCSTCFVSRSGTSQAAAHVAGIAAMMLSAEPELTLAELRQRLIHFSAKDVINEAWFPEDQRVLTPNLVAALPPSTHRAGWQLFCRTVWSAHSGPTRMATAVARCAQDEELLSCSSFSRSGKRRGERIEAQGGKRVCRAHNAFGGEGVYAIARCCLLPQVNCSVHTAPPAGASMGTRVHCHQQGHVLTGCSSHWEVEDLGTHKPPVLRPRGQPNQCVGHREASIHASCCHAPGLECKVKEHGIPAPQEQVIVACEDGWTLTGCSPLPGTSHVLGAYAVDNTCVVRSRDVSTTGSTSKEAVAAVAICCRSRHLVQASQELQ
T5 sequence (A8T666 31-692 limits assumed): as above

Kd [4] | koff [4] | kon [4] | Kd [5] | koff [5] | kon [5] | Kd [6] | koff [6] | kon [6] | IC50 [7] | EC50 [8] | IC50 (nM), LDL-uptake assay in HepG2 cells [9] | Kd [10] | Molecule | other results
– | – | – | – | – | – | – | – | – | – | – | – | – | Repatha (evolocumab) (antibody) | EC50 [1]: 0.038 nM; IC50 (nM), LDL-uptake assay, HepG2 [2]: 77.6 nM; IC50 (nM), LDL-uptake assay, Huh-7 [2]: 98.2 nM; IC50 [3]: 2.1 nM
0.19 nM | 3.78e-06 s⁻¹ | 19900 M⁻¹ s⁻¹ | 2.11 nM | 4.69e-05 s⁻¹ | 22200 M⁻¹ s⁻¹ | – | – | – | – | – | – | – | 2.6.6-z4-uIgG1k (antibody, V domains shown, Humanized antibody of 2.6.6 with a human constant region of IgG1 isotype, kappa light chain) VH: QVQLVQSGAEVKKPGASVKVSCKASGYTFTSYWIHWVRQAPGQGLEWMGELNPSDGRTNYNEKFKNKATMTVDTSTSTVYMELSSLRSEDTAVYYCARSNFYGSSSFANWGQGTLVTVSS VL: DIQMTQSPSSLSASVGDRVTITCSASSSVSYMNWYQQKPGKAPKLLIYGISNLASGVPSRFSGSGSGTDFTFTISSLQPEDIATYYCQQRSSYPPTFGGGTKVEIK | –
– | – | – | – | – | – | 1.08 nM | 0.000148 s⁻¹ | 137000 M⁻¹ s⁻¹ | 8.5 nM | 0.14 nM | 130 nM | 0.6 nM | 2.6.6 (antibody, V domains shown, Mouse monoclonal antibody purified from hybridoma supernatant; also called 2.6.6 (mouse antibody)) VH: QVQLQQPGAEVVKPGASVTVSCKASGYTFTSYWIHWVMQRPGQGLEWIGELNPSDGRTNYNEKFKNKATLTVDTSSSTVYMQLSSLTSEDSAVYYCARSNFYGSSSFANWGQGTLVTVSA VL: EILLTQSPAIIAASPGEKVTITCSASSSVSYMNWYQQKPGSSPILWIYGISNLASGVPARFSGSGSGTSFSFTINNMEAEDVATYYCQQRSSYPPTFGGGTKLEIK | –
– | – | – | – | – | – | 0.0531 nM | 5.43e-05 s⁻¹ | 1.02e+06 M⁻¹ s⁻¹ | 3 nM | 0.14 nM | 72.5 nM | 0.5 nM | 2.12.12.4 (antibody, V domains shown, Mouse monoclonal antibody purified from hybridoma supernatant; also called parental murine antibody) VH: EVQLQQSGPELVKPGASVKMSCEASGYTFTNYVMHWVKQKPGQGLEWIGYINPYNDYIKYNEKFKGKATLTSDKSSSTTYLEVSSLTSEDSAVYYCGRQRYYGYRPYYAMDYWGQGTSVTVSS VL: NIVLTQSPASLAVSLGQRATISCRASESVDGYGNVFMHWYQQKPGQPPKLLIYLASNLESGVPDRFSGSGSRTDFTLTIDPVEADDAATYYCQQNNKDPWTFGGGTKLEIK | –
0.379 nM | 0.000303 s⁻¹ | 800000 M⁻¹ s⁻¹ | 0.0271 nM | 2.67e-05 s⁻¹ | 984000 M⁻¹ s⁻¹ | – | – | – | – | – | – | – | 2.12.12.4-z4-uIgG4k (antibody, V domains shown, the chains here are derived by undoing them; Human constant region of IgG4 isotype, kappa light chain) VH: QVQLVQSGAEVKKPGSSVKVSCEASGYTFTNYVMHWVRQAPGQGLEWMGYINPYNDYIKYNEKFKGKATITADKSTSTAYMELSSLRSEDTAVYYCGRQRYYGYRPYYAMDYWGQGTLVTVSS VL: DIVLTQSPASLAVSPGQRATITCRASESVDGYGNVFMHWYQQKPGQPPKLLIYLASNLESGVPARFSGSGSGTDFTLTINPVEANDTANYYCQQNNKDPWTFGGGTKVEIK | EC50 [11]: 0.026 nM; IC50 [12]: 1.9 nM; EC50 (read off the curve) [13]: ~0.06 nM; EC50 (read off the curve) [14]: ~0.07 nM
– | – | – | – | – | – | – | – | – | – | – | – | – | 2.12.12.4-v2-z4-uIgG4k (antibody, V domains shown, Engineered humanized antibody with a human constant region of IgG4 isotype, kappa light chain; also called engineered antibody lead) VH: QVQLVQSGAEVKKPGSSVKVSCEASGYTFTNYVMHWVRQAPGQGLEWMGYINPYNDYIKYNEKFKGKATITADKSTSTAYMELSSLRSEDTAVYYCGRQRYYGYRPYYAMDYWGQGTLVTVSS VL: DIVLTQSPASLAVSPGQRATITCRASESVEGYGNVFMHWYQQKPGQPPKLLIYLASNLESGVPARFSGSGSGTDFTLTINPVEADDTANYYCQQNNKDPWTFGGGTKVEIK | Kd [15]: 0.522 nM; koff [15]: 0.000291 s⁻¹; kon [15]: 558000 M⁻¹ s⁻¹; Kd [16]: 0.0423 nM; koff [16]: 4.32e-05 s⁻¹; kon [16]: 1.02e+06 M⁻¹ s⁻¹
